{"source": "patent CN107081136A", "key": {"[1]": {"target": "Myc-GST融合蛋白 (Myc-GST fusion protein)", "experiment": "ELISA, Myc-GST coated at 5 μg/mL, HRP anti-His secondary antibody, heat-stability test at 70℃"}, "[2]": {"target": "Myc-GST融合蛋白 (Myc-GST fusion protein)", "experiment": "ELISA, Myc-GST coated at 5 μg/mL, HRP anti-His secondary antibody, heat-stability test at 90℃"}, "[3]": {"target": "Myc-GST融合蛋白 (Myc-GST fusion protein)", "experiment": "ELISA, Myc-GST coated at 5 μg/mL, HRP anti-His secondary antibody, heat-stability test at 80℃"}}, "data": [{"binder": "抗c-Myc标签单域重链抗体 (anti-c-Myc tag single-domain heavy-chain antibody) (VHH, not shown: small tags and cut ends) VHH: QLQLVESGGGLVQPGGSLRLSCTVSGFPLDNYAIGWLRQAPGKEREGVACISNRGGRTDYVDSVRGRFTISRDNAKKTVYLQMHNLKPEDTGIYYCVAPEMFRPCKLSSEDVRHWGHGTQVTVSS", "values": [{"measurement": "OD450", "setting": "[1]", "result": 1.5, "unit": "OD450"}, {"measurement": "OD450", "setting": "[2]", "result": 1.2, "unit": "OD450"}, {"measurement": "OD450", "setting": "[3]", "result": 1.3, "unit": "OD450"}]}]}
